Molecular target: GluN2B-containing NMDA receptor (GluN1a/GluN2B)
Assay: cell-based or functional assay

B1: Con-G-like APP (cAPP) (peptide)
peptide: ADTDYADGSEDKVVE
- inhibition of receptor currents, two-electrode voltage clamp, Xenopus oocytes: < 30%
